Results taken from publication PMC9282857, “Adaptor linked K63 di-ubiquitin activates Nedd4/Rsp5 E3 ligase” (eLife, 2022).

T1: Rsp5 HECT domain (444-809) (S. cerevisiae, UniProt P39940 444-809)
T1 construct: Rsp5 HECT domain, S. cerevisiae, residues 444-809; also called Rsp5 HECT protein; source: E. coli Rosetta (DE3), purified (TALON, Ulp1 cleavage, Superdex 200); not shown: His6, N-terminal, cleaved; SUMO, N-terminal, cleaved
T1 sequence (looked up): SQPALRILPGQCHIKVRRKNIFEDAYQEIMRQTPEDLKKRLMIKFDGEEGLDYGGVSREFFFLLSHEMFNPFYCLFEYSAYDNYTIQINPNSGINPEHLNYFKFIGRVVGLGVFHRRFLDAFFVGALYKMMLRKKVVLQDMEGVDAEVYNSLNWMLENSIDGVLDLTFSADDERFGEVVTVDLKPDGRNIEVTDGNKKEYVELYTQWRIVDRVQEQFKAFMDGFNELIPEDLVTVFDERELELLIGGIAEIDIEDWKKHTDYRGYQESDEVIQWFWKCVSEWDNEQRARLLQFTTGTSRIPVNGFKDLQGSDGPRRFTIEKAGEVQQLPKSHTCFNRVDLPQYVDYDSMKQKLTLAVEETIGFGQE


Legend:
[1] = biological target: T2, Rsp5 WW1-HECT domain (224-809) (S. cerevisiae, UniProt P39940 224-809); test: ITC; Affinity-ITC calorimeter, 25°C; 20 mM Tris-HCl pH 7.5, 150 mM NaCl, 1 mM DTT; independent binding model; settings: both partners purified
T2 construct: Rsp5 WW1-HECT, S. cerevisiae, residues 224-809; also called purified WW domains from Rsp5; source: E. coli Rosetta (DE3), purified (TALON, Ulp1 cleavage, Superdex 200); not shown: His6, N-terminal, cleaved; SUMO, N-terminal, cleaved

[2] = biological target: T1, Rsp5 HECT domain (444-809); test: as above; settings: both partners purified

Kd [1] [µM]	Kd [2] [µM]	Binder
3.1		Art5 PY motifs containing region (520-586) (domain or fragment, S. cerevisiae, UniProt P53244 520-586, looked up, Art5, S. cerevisiae, residues 520-586 with the PY motifs; also called Art5 PY motif containing peptide; PY motifs of Art5; source: E. coli Rosetta (DE3), purified (Glutathione Sepharose, PreScission cleavage, Superdex 200)) STTTAHLALPQPPPNYHESTNDHLMPALQPLGADSVVLTVPSYEQAQAQASASSYVTGSVPAYCDDD
	145	K48-linked di-Ub (complex, distal ubiquitin; its C-terminus is joined by an isopeptide bond to K48 of the proximal ubiquitin | proximal ubiquitin; K48 carries the distal ubiquitin, ubiquitin, S. cerevisiae; distal ubiquitin of the dimer; proximal ubiquitin of the dimer with an extra D77 after the C-terminal Gly-Gly; also called K48 di-Ub; source: synthesised in vitro from purified Ub K48R and Ub D77 with human E1 and E2-25K; purified (SP Sepharose, Superdex 75)) chain 1: not shown chain 2: not shown

The next lines start with the binder.

Binder	Kd [1] [µM]	Kd [2] [µM]
mono-ubiquitin (WT) (natural protein, ubiquitin, S. cerevisiae, amplified from SEY6210 genomic DNA; also called Ub-WT; mono-Ub-WT; source: E. coli Rosetta (DE3), non-tagged, purified (SP Sepharose, Superdex 200)) not shown		~201
K63-linked di-ubiquitin (complex, distal ubiquitin; its C-terminus is joined by an isopeptide bond to K63 of the proximal ubiquitin | proximal ubiquitin; K63 carries the distal ubiquitin, ubiquitin, S. cerevisiae; distal ubiquitin of the dimer; proximal ubiquitin of the dimer with an extra D77 after the C-terminal Gly-Gly; also called K63 di-Ub; K63-di-Ub; source: synthesised in vitro from purified Ub K63R and Ub D77 with human E1, Ubc13 and Mms2; purified (SP Sepharose, Superdex 75)) chain 1: not shown chain 2: not shown		33
